According to patent publication US20130034894A1, “NOVEL ALLENE OXIDE SYNTHASE DERIVED FROM LEMNA PAUCICOSTATA” (priority 2010, published 2013):

Tests used:
[1] = Activity testing in KODA production (HPLC quantitation of KODA); type: biochemical; details: 0.32 ng protein in 20 μl 9-HPOT reaction solution, room temperature, 10 minutes; relative to AtAOS
Source text: The allene oxide synthase activity can be determined by allowing a 9-product specific lipoxygenase to act on α-linolenic acid, and then adding a given amount of allene oxide synthase to the enzymatic reaction product 9-hydroperoxylinolenic acid (9-HPOT) to produce KODA, and the KODA produced is quantitatively analyzed by HPLC.
After the SHLpAOS sequence integrated into the pTAC-2 vector by the above method was cleaved with NcoI and XhoI, it was introduced into a commercially available vector pET41a (Novagen) for protein expression to obtain a plasmid pET41a/SHLpAOS for expression of Lemna paucicostata allene oxide synthase. This plasmid was transformed into Escherichia coli strain BL21(DE3) (Novagen). Then, it was inoculated in 3 ml of the LB medium containing 30 mg/l kanamycin, and cultured under shaking overnight at 37° C. and 250 rpm. 100 μl of this culture liquid was added to 10 ml of the LB medium containing the same concentration of kanamycin and 1% glucose and cultured under shaking at 37° C. and 250 rpm for 3-4 hours. […]
In the activity testing in KODA production, 5 mM linolenic acid solution (dissolved in 0.1% Tween 80 solution) was prepared, and reacted with lipoxygenase extracted from rice germ at pH 7 at room temperature for 10 minutes to synthesize 9-hydroperoxylinolenic acid (9-HPOT) solution. […] 10 μl of this solution was analyzed by HPLC. […]

[2] = Kinetic analysis of allene oxide synthase (decrease in absorbance at 234 nm, Hanes-Woolf plot); type: biochemical; details: for Kcat / Km / Vmax: substrate 9-HPOT 5-53 μM, 40 mM phosphate buffer pH 7.5, 1% EtOH, 25° C.
Procedure: SHLpAOS obtained from Lemna paucicostata SH strain was subjected to kinetic analysis. Using a reaction mixture comprising 40 mM phosphate buffer (pH 7.5) and 1% EtOH, the reaction was carried out at a temperature of 25° C. The substrate 9-HPOT was tested at the substrate concentration of 5-53 μM. The substrate 9-HOPT was added as an EtOH solution, and the final concentration of EtOH was adjusted to 1%. 100 μl of the reaction mixture was added into a cuvette, and a decrease in absorbance at 234 nm was scanned over time for 1 minute at an interval of 2 seconds using the SmartSpec Plus Spectrophotometer (Bio-Rad). From the A234 determined, the amount of the reaction product was calculated (e=25,000). Kinetic parameters were determined using the Hanes-Woolf plot ([S]/v versus [S] plot). […] It is believed that compared to AtAOS, SHLpAOS is a very useful AOS in the practical production of KODA.

B1: SHLpAOS: allene oxide synthase obtained from the Lemna paucicostata SH strain, expressed in Escherichia coli (SEQ ID NO: 2, 480 aa) (protein, listed as Lemna paucicostata)
chain: MSVSQSDDKAALVPQKTIPGSYGIPFITPLKDRLDFFSNEYQFFQSRVESYGSTIVRLNAPPGPFMAKNPQVIAILDGKSFPVLFDTSKVEKKNIFTGTYMPSTALTGGYRVCAYLDPSEPNHTKIKQLLLNILFNRKDHVIPEFHRAYEKLFDDMDAEIAKSGKFVFNDHNDGAAFEFLGRLFFGVSPSETELGAGGVKDANLWLFSQLCPLMTLGFLPKLLEDLLLHTFPLPPFLFKGKYQAIYKYISSVATDALTMAENLGLSREEAAHNLLFAVCFNSLGGVKVLFPGILRYIAQAGKNLQASLVSEVRSAVSSTGGELTIEALEKMPLTKSVVYESLRLDPPVKYQYGVVKKDMVIESHDRSYEVKAGETLFGYQPFATRDKKIFGPDADNFVAERFIGEEGAKVLRFVVWSNGPETTDPTPVDKQCPGKNLVVLISRLLVAEFFLRYDFFDAEIGAVPLAVKTTITSLTKATTR
**Q.** With B1 as the molecule, how does the “Activity in KODA production, higher than the AtAOS protein” value [1] read?
**A.** ~7 fold

**Q.** And the “Affinity for 9-HPOT, higher than AtAOS” value ([2]; relative to AtAOS)?
**A.** about 5 fold

**Q.** And the “Kcat value, higher than in AtAOS” value ([2]; relative to AtAOS)?
**A.** about 2.8 fold

**Q.** And the “Kcat/Kn value, higher than in AtAOS” value ([2]; relative to AtAOS)?
**A.** about 14 fold

**Q.** What about the “Vmax, higher than AtAOS” value ([2]; relative to AtAOS) of the same molecule?
**A.** about 2.8 fold

**Q.** And the Kcat [2]?
**A.** 709.2 ± 44.3 s⁻¹

**Q.** And the Km [2]?
**A.** 7.1 ± 1.9 µM

**Q.** What about the Vmax [2] of the same molecule?
**A.** 4.7 ± 0.3 µmol/s

B2: AtAOS: A. thaliana-derived allene oxide synthase (AOS) protein used as the control, expressed in Escherichia coli (protein, UniProt Q96242 34-518, looked up)
Allene oxide synthase, …: SGSETPDLTVATRTGSKDLPIRNIPGNYGLPIVGPIKDRWDYFYDQGAEEFFKSRIRKYNSTVYRVNMPPGAFIAENPQVVALLDGKSFPVLFDVDKVEKKDLFTGTYMPSTELTGGYRILSYLDPSEPKHEKLKNLLFFLLKSSRNRIFPEFQATYSELFDSLEKELSLKGKADFGGSSDGTAFNFLARAFYGTNPADTKLKADAPGLITKWVLFNLHPLLSIGLPRVIEEPLIHTFSLPPALVKSDYQRLYEFFLESAGEILVEADKLGISREEATHNLLFATCFNTWGGMKILFPNMVKRIGRAGHQVHNRLAEEIRSVIKSNGGELTMGAIEKMELTKSVVYECLRFEPPVTAQYGRAKKDLVIESHDAAFKVKAGEMLYGYQPLATRDPKIFDRADEFVPERFVGEEGEKLLRHVLWSNGPETETPTVGNKQCAGKDFVVLVARLFVIEIFRRYDSFDIEVGTSPLGSSVNFSSLRKASF
**Q.** What does the source list for B2?
**A.** Kcat [2]: 255.5 ± 4.8 s⁻¹; Km [2]: 36.3 ± 1.3 µM; Vmax [2]: 1.7 ± 0.03 µmol/s
